In patent US7244591:

Target: T1, recombinant human parathyroid hormone (hPTH), intact molecule (1-84), P01270
T1 chain: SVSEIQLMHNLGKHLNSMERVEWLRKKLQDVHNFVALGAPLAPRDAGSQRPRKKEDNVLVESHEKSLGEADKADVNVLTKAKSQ

B1: Yapsin 1 (protein)
chain: ADGYEEIIITNQQSFYSVDLEVGTPPQNVTVLVDTGSSDLWIMGSDNPYCSSNSMGSSRRRVIDKRDDSSSGGSLINDINPFGWLTGTGSAIGPTATGLGGGSGTATQSVPASEATMDCQQYGTFSTSGSSTFRSNNTYFSISYGDGTFASGTFGTDVLDLSDLNVTGLSFAVANETNSTMGVLGIGLPELEVTYSGSTASHSGKAYKYDNFPIVLKNSGAIKSNTYSLYLNDSDAMHGTILFGAVDHSKYTGTLYTIPIVNTLSASGFSSPIQFDVTINGIGISDSGSSNKTLTTTKIPALLDSGTTLTYLPQTVVSMIATELGAQYSSRIGYYVLDCPSDDSMEIVFDFGGFHINAPLSSFILSTGTTCLLGIIPTSDDTGTILGDSFLTNAYVVYDLENLEISMAQARYNTTSENIEIITSSVPSAVKAPGYTNTWSTSASIVTGGNIFTVNSSQTASFSGNLTTSTASATSTSSKRN
cleavage of secreted hPTH into the truncated d1 form (27-84), SDS-PAGE of culture supernatants of wild-type and yps1-disrupted strains: the main protease causative of the cleavage of hPTH in the early culture stage is Yapsin 1
